Reference: patent US8273855 (JIANGSU NOVAVAC BIO TEC, dated 2012)

What was measured:
[1] = biological target: T1, Caspr (native, adult rat brain membrane extracts) (rat, UniProt P97846 21-1381); test: co-immunoprecipitation from adult rat brain membrane extracts, Western blot
T1 construct: also called Paranodin; contactin-associated protein
T1 sequence (looked up): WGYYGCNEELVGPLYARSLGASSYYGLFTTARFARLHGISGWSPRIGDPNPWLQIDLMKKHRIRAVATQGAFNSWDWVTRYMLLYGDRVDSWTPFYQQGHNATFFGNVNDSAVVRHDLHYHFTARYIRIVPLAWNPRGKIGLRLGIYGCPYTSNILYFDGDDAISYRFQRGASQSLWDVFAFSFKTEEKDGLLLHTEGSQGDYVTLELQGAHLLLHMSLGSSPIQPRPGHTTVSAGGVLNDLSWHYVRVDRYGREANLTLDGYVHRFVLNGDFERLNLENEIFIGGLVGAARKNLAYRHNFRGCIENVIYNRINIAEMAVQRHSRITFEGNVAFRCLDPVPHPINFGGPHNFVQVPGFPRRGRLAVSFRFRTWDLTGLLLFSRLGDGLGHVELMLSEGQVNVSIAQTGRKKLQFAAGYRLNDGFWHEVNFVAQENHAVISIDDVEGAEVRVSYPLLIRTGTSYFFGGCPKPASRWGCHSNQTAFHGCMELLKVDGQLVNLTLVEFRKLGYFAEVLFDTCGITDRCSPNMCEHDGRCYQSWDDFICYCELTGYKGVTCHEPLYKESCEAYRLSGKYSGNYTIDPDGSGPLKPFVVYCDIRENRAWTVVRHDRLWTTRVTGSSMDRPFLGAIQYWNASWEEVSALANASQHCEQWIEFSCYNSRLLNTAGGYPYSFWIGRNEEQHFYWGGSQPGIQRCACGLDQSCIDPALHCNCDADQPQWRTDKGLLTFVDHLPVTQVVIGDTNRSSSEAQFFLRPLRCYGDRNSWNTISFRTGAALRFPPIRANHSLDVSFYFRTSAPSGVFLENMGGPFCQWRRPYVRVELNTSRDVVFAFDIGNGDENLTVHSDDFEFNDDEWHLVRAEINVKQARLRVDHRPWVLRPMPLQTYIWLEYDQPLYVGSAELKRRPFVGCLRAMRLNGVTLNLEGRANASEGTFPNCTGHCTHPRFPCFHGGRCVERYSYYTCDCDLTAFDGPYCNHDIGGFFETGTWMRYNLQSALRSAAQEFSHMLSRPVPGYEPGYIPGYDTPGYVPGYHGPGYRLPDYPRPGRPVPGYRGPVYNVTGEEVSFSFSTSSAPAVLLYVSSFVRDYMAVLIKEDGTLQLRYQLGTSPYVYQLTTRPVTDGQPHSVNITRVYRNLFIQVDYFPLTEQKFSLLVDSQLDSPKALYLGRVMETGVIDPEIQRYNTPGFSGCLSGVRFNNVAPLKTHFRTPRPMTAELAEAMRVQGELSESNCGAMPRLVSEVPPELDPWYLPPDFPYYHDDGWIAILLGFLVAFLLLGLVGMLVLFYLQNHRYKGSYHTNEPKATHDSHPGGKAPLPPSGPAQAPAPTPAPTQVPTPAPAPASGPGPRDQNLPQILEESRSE

[2] = biological target: Notch on primary rat oligodendrocytes and oligodendrocyte precursor cells (rat, UniProt Q07008 19-2531); test: cell-based or functional assay
Sequence of Notch on primary rat oligodendrocytes and oligodendrocyte precursor cells (Q07008 19-2531): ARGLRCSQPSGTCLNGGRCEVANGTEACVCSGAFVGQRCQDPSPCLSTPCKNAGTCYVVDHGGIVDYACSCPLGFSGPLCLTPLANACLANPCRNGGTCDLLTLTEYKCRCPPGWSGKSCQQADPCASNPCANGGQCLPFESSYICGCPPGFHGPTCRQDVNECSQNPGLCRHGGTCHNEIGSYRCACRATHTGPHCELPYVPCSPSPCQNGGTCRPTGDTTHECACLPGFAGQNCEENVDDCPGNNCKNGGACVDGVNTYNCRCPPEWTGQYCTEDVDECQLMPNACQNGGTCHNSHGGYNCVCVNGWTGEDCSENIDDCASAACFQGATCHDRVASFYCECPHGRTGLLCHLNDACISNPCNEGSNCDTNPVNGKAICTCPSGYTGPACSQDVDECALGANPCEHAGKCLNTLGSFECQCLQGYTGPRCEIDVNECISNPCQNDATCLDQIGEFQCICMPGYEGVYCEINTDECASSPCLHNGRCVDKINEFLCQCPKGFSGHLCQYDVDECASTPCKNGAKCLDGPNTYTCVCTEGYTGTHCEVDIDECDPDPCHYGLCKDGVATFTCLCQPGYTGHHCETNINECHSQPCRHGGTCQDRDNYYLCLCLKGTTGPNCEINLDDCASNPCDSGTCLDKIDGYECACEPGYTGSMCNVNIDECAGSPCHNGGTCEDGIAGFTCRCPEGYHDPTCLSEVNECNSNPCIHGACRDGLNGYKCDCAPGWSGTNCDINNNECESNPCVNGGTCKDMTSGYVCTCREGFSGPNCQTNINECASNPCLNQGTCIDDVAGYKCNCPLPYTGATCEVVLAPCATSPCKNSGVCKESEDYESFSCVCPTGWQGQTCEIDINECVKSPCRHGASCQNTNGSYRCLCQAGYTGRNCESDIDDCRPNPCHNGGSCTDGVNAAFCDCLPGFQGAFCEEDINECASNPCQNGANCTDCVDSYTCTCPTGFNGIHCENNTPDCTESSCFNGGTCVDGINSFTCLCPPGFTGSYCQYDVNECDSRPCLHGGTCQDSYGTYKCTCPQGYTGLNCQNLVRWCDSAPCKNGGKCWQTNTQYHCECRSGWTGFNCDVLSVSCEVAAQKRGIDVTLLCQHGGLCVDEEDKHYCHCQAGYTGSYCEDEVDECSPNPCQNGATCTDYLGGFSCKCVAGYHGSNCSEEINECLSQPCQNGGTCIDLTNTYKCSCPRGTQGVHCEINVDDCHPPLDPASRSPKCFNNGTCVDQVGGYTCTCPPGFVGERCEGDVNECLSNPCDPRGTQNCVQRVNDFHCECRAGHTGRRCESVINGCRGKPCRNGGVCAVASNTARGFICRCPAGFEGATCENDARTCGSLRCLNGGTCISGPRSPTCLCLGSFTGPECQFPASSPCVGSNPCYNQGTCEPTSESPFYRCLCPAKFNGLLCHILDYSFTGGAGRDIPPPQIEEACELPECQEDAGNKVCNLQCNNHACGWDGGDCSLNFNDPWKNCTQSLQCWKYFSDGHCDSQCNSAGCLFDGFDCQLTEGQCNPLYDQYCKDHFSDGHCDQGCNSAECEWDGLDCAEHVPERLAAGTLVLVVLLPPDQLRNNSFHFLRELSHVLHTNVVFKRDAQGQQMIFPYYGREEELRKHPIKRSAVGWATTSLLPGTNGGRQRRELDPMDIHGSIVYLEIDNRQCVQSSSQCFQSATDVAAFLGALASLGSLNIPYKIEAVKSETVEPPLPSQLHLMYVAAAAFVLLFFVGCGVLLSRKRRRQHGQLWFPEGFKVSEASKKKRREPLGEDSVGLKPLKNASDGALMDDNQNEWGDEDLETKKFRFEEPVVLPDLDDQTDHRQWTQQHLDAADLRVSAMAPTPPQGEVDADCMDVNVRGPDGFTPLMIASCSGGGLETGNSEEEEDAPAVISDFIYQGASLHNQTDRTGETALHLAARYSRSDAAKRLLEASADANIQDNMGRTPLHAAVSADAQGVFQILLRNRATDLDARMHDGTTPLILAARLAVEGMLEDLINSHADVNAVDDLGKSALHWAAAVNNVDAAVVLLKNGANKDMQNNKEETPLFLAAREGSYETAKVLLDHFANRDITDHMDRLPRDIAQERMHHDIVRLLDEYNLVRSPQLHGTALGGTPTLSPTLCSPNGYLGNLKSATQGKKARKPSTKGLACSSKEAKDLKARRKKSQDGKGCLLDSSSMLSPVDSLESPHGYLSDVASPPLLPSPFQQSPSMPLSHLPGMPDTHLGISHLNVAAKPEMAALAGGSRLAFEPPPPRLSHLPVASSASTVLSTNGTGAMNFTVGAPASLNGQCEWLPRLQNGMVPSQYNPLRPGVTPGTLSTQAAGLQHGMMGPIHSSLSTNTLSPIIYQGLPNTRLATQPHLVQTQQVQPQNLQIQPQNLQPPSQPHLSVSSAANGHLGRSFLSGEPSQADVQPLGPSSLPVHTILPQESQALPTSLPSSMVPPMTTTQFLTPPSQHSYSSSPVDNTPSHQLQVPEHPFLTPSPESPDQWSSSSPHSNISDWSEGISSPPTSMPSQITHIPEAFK

[3] = biological target: myc-tagged full-length mouse Notch1 on transfected OLN cells (mouse, UniProt Q01705 19-2531); test: cell-based or functional assay
Sequence of myc-tagged full-length mouse Notch1 on transfected OLN cells (Q01705 19-2531): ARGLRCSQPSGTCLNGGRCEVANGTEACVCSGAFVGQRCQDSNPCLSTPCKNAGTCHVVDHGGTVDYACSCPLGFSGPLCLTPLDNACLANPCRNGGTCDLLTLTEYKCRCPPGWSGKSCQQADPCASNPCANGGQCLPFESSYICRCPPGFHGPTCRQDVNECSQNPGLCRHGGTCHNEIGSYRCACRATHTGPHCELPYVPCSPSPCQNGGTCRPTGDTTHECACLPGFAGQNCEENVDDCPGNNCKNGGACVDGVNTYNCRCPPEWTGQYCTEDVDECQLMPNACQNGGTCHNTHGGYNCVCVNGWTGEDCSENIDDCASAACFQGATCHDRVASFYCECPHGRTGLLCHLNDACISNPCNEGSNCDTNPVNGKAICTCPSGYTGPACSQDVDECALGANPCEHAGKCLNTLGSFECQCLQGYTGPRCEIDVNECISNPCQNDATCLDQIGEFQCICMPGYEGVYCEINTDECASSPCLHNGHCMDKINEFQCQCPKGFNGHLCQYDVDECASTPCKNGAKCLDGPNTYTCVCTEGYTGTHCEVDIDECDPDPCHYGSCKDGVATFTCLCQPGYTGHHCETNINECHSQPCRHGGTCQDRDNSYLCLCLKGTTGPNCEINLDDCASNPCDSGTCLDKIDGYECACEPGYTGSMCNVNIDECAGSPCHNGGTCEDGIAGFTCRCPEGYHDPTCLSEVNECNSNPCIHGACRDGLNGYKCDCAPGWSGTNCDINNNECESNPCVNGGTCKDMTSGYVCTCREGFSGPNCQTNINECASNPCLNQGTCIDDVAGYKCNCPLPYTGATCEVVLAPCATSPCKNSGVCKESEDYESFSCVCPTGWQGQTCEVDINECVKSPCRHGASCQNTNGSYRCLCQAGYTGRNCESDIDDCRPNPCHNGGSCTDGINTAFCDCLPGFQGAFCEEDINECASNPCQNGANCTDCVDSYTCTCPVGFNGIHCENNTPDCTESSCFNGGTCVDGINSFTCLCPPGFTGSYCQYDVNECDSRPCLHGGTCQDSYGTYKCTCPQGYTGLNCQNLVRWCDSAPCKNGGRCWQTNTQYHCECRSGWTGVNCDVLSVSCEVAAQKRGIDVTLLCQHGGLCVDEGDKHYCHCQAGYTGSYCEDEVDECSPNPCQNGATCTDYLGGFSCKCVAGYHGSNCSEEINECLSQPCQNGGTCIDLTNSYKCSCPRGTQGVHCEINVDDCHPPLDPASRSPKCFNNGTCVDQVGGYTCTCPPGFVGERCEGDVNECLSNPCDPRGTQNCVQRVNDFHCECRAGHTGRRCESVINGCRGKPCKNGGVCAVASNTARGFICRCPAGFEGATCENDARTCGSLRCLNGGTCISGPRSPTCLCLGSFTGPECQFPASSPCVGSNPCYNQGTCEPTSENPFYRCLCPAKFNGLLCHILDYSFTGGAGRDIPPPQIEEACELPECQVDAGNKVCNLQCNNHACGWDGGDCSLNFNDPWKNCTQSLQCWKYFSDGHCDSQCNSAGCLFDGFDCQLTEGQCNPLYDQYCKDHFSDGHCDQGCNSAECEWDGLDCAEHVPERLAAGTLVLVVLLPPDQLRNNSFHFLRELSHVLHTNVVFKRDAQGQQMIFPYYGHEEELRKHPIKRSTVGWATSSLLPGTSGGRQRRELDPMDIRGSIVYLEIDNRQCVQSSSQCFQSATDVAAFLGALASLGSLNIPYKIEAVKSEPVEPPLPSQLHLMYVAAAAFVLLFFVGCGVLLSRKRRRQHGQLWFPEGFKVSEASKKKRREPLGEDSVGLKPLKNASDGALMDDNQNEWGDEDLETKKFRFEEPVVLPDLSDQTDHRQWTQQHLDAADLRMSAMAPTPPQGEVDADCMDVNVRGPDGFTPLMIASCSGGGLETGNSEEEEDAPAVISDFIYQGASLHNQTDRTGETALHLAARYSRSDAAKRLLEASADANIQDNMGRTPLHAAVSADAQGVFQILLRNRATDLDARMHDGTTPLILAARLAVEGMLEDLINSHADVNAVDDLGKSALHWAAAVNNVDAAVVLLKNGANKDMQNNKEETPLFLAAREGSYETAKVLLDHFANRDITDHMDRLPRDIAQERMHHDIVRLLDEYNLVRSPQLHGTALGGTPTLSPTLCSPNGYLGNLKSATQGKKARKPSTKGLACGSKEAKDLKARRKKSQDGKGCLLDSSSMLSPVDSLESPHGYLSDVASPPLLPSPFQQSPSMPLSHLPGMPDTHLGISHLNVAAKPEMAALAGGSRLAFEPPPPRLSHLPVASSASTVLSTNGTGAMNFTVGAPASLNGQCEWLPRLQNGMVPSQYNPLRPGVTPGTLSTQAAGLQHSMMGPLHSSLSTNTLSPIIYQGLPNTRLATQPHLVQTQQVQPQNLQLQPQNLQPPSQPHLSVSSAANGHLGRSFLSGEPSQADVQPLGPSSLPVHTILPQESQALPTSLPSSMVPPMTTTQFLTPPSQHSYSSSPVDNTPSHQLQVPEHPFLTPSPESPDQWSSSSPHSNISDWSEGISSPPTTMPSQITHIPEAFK

Notch2 on OLN-93 cells = biological target: T2, Notch2 on OLN-93 cells (rat, UniProt Q9QW30 26-2471); test: OLN-93 cell adhesion to F3-Fc substrate with antibody blockade
T2 construct: whole, on cells; also called OLN cells
Experimental: This was carried out as previously described (Xiao et al, 1996). Briefly, 35 mm tissue culture petri dishes (Becton Dickinson) were coated with methanol solubilized nitrocellulose (Lagenaur and Lemon, 1987) and air-dried under a sterile hood.

[4] = biological target: T3, F3 on F3-transfected CHO cells (UniProt P12960 21-1001); test: cell adhesion assay, F3-CHO cells on coated substrate
T3 construct: whole, on cells; also called F3-CHO; F3-expressing CHO cells
T3 sequence (looked up): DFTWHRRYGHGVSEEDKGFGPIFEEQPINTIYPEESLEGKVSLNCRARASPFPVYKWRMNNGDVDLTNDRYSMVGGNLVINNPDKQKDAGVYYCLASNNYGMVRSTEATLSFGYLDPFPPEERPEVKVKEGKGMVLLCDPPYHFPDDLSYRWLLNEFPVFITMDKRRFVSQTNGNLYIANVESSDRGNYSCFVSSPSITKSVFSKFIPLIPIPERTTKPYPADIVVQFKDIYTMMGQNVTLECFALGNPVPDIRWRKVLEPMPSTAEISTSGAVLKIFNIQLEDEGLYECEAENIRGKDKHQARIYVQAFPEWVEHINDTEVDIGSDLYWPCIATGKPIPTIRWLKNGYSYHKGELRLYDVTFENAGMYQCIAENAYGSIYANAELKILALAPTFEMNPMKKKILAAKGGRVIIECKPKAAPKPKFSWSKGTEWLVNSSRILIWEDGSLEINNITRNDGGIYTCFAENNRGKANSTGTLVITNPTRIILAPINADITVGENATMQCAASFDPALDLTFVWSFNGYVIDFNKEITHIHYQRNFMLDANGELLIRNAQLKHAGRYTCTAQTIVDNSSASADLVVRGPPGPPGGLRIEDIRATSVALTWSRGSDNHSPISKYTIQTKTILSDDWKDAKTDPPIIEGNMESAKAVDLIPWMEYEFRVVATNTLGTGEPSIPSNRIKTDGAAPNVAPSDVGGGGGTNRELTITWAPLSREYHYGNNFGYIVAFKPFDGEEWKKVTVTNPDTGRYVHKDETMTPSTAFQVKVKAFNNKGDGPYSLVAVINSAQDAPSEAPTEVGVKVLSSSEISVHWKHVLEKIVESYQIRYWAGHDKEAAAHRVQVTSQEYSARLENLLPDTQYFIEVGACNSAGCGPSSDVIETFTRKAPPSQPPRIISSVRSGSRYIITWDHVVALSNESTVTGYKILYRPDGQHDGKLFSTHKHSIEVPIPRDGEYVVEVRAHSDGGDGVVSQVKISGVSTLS

B1: NB-3 (native, rat brain) (ligand, UniProt P97528 20-999, looked up)
chain: ESRFTRPIFIQEPQDVIFPLDLSRSEIILSCTASGYPSPHYRWKQNGTDIDFSMTYHYRLDGGSLAISSPRTDQDIGIYQCLATNPVGTILSRKAKLQFAYIEDFETKSRSTVSVREGQGVVLLCGPPPHFGELSYDWTFNDNPLYVQEDKRRFVSQNTGNLYIAKVEPSDVGNYTCFVTNKEAHRSVQGPPTPLVQRTDGVMGEYEPKIEVRFPETIQAAKDSSVKLECFALGNPVPDISWRRLDGSPMPGKVKYSNSQATLEIPKFQQEDEGFYECVAGNLRGRNLAKGQLIFYAPPEWEQKIQNTYLSIYDSLFWECKASGNPNPSYTWLKNGERLNTEERIQTENGTLIITMLNVSDSGIYQCAAENKYQTIYANAELRVLASAPDFSKNPIKKISVVQVGGDISIECKPNAFPKASISWKRGTENLKQSKRVFFLEDGSLKICNVTRSDAGSYTCVATNQFGNGKSSGSLIVKERTVITVPPSKMDVTVGESIVLPCQVSHDPTMEVLFVWYFNGDVIDLKKGVAHFERIGGESVGDLMIRNIQLGHSGKYLCTVQTTLERLSAVADIIVRGPPGPPEDVKVEHISSTTSQLSWRPGPDNNSPIQIFTIQTRTPFSVGWQAVATVPEILNGQTYNATVIGLSPWVEYEFRVVAGNNIGIGEPSKPSELLRTKASIPNVAPVNINGGGGSRSELVITWEPIPEELQNGEGFGYIIMFRPVGSTTWMKEKVALVESSKFIYRNESIMPLSPFEVKVGVYNNEGEGSLSTVSIVYSGEDEPRLAPRGTSVQSFSASDMEVSWNAIAWNRNTGRVLGYEVLYWTDNSKESMIGKIRVSGNVTTKNITGLRANTIYFASVRAYNTAGTGPSSPPVNVTTKKSPPSQPPANIAWKLSNSKLCLNWEHVKTMENESEVLGYKILYRQNRQSKTHVLETNNTSAELLVPFEEDYLIEIRTVSDGGDGSSSEEIRIPKMSSLSS
Question: Does B1 bind [1]?
Answer: Result: no binding

B2: NB-3-His (ligand, rat)
chain: ESRFTRPIFIQEPQDVIFPLDLSRSEIILSCTASGYPSPHYRWKQNGTDIDFSMTYHYRLDGGSLAISSPRTDQDIGIYQCLATNPVGTILSRKAKLQFAYIEDFETKSRSTVSVREGQGVVLLCGPPPHFGELSYDWTFNDNPLYVQEDKRRFVSQNTGNLYIAKVEPSDVGNYTCFVTNKEAHRSVQGPPTPLVQRTDGVMGEYEPKIEVRFPETIQAAKDSSVKLECFALGNPVPDISWRRLDGSPMPGKVKYSNSQATLEIPKFQQEDEGFYECVAGNLRGRNLAKGQLIFYAPPEWEQKIQNTYLSIYDSLFWECKASGNPNPSYTWLKNGERLNTEERIQTENGTLIITMLNVSDSGIYQCAAENKYQTIYANAELRVLASAPDFSKNPIKKISVVQVGGDISIECKPNAFPKASISWKRGTENLKQSKRVFFLEDGSLKICNVTRSDAGSYTCVATNQFGNGKSSGSLIVKERTVITVPPSKMDVTVGESIVLPCQVSHDPTMEVLFVWYFNGDVIDLKKGVAHFERIGGESVGDLMIRNIQLGHSGKYLCTVQTTLERLSAVADIIVRGPPGPPEDVKVEHISSTTSQLSWRPGPDNNSPIQIFTIQTRTPFSVGWQAVATVPEILNGQTYNATVIGLSPWVEYEFRVVAGNNIGIGEPSKPSELLRTKASIPNVAPVNINGGGGSRSELVITWEPIPEELQNGEGFGYIIMFRPVGSTTWMKEKVALVESSKFIYRNESIMPLSPFEVKVGVYNNEGEGSLSTVSIVYSGEDEPRLAPRGTSVQSFSASDMEVSWNAIAWNRNTGRVLGYEVLYWTDNSKESMIGKIRVSGNVTTKNITGLRANTIYFASVRAYNTAGTGPSSPPVNVTTKKSPPSQPPANIAWKLSNSKLCLNWEHVKTMENESEVLGYKILYRQNRQSKTHVLETNNTSAELLVPFEEDYLIEIRTVSDGGDGSSSEEIRIPKMSSLSSHHHHHH
Question: For B2, which “MAG mRNA, real-time RT-PCR, primary oligodendrocytes on protein substrate against BSA” value [2] is on record?
Answer: Its value is roughly 8 fold.

B3: F3-Fc (Fc fusion, mouse, UniProt P12960 21-1001, looked up)
chain: DFTWHRRYGHGVSEEDKGFGPIFEEQPINTIYPEESLEGKVSLNCRARASPFPVYKWRMNNGDVDLTNDRYSMVGGNLVINNPDKQKDAGVYYCLASNNYGMVRSTEATLSFGYLDPFPPEERPEVKVKEGKGMVLLCDPPYHFPDDLSYRWLLNEFPVFITMDKRRFVSQTNGNLYIANVESSDRGNYSCFVSSPSITKSVFSKFIPLIPIPERTTKPYPADIVVQFKDIYTMMGQNVTLECFALGNPVPDIRWRKVLEPMPSTAEISTSGAVLKIFNIQLEDEGLYECEAENIRGKDKHQARIYVQAFPEWVEHINDTEVDIGSDLYWPCIATGKPIPTIRWLKNGYSYHKGELRLYDVTFENAGMYQCIAENAYGSIYANAELKILALAPTFEMNPMKKKILAAKGGRVIIECKPKAAPKPKFSWSKGTEWLVNSSRILIWEDGSLEINNITRNDGGIYTCFAENNRGKANSTGTLVITNPTRIILAPINADITVGENATMQCAASFDPALDLTFVWSFNGYVIDFNKEITHIHYQRNFMLDANGELLIRNAQLKHAGRYTCTAQTIVDNSSASADLVVRGPPGPPGGLRIEDIRATSVALTWSRGSDNHSPISKYTIQTKTILSDDWKDAKTDPPIIEGNMESAKAVDLIPWMEYEFRVVATNTLGTGEPSIPSNRIKTDGAAPNVAPSDVGGGGGTNRELTITWAPLSREYHYGNNFGYIVAFKPFDGEEWKKVTVTNPDTGRYVHKDETMTPSTAFQVKVKAFNNKGDGPYSLVAVINSAQDAPSEAPTEVGVKVLSSSEISVHWKHVLEKIVESYQIRYWAGHDKEAAAHRVQVTSQEYSARLENLLPDTQYFIEVGACNSAGCGPSSDVIETFTRKAPPSQPPRIISSVRSGSRYIITWDHVVALSNESTVTGYKILYRPDGQHDGKLFSTHKHSIEVPIPRDGEYVVEVRAHSDGGDGVVSQVKISGVSTLS
notes: domain: F3 without the GPI-anchor; also called F3 substrate; soluble F3; not shown: human IgG Fc
Question: B3 was tested. Which “nuclear NICD staining intensity” value [3] did it give?
Answer: Its value is 2 fold.

Question: And the “MAG mRNA, real-time RT-PCR, primary oligodendrocytes on protein substrate against BSA” value [2]?
Answer: The value was roughly 8 fold.

Question: What about the “MAG transcripts, real-time PCR, primary OLs on F3 substrate against BSA” value [2] of the same binder?
Answer: The value was roughly 16 fold.

Question: Does B3 bind (Notch2 on OLN-93 cells)?
Answer: Result: binds

B4: GST-Nogo-66 (other, UniProt Q9NQC3 1055-1120, looked up)
chain: RIYKGVIQAIQKSDEGHPFRAYLESEVAISEELVQKYSNSALGHVNCTIKELRRLFLVDDLVDSLK
notes: also called Nogo-66-GST; recombinant GST-Nogo-66 protein; not shown: glutathione S-transferase (GST) encoded by vector pGEX-KG
Question: Does B4 bind [4]?
Answer: Result: no binding
